Data on two molecules can be found in publication PMC11203824.

Test [1] deals with T1, EGFP-Arc (EGFP tag at the N-terminus), expressed in U2OS cells (mouse), Q9WV31.
T1 chain: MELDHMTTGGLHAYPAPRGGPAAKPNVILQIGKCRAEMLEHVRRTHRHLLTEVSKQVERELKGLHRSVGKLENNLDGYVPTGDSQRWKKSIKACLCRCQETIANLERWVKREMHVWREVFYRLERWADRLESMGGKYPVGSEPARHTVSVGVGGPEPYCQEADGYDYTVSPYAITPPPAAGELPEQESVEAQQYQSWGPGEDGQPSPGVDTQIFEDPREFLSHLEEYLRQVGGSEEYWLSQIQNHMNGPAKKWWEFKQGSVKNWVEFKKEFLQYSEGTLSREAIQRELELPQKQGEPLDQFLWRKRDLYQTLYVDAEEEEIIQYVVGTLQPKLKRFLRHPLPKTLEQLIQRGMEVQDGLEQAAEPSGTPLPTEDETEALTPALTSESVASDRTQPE
Nature of the test: fluorescence fluctuation spectroscopy (brightness analysis); single-point FFS in the cytoplasm of living U2OS cells, ~200 nM to ~5 µM EGFP-tagged Arc; normalized brightness b against EGFP alone gives the average stoichiometry. The settings on record: remark: other sources report otherwise.

Test [2] addresses T2, Arc-EGFP (EGFP tag at the C-terminus), expressed in U2OS cells (mouse), Q9WV31.
T2 chain: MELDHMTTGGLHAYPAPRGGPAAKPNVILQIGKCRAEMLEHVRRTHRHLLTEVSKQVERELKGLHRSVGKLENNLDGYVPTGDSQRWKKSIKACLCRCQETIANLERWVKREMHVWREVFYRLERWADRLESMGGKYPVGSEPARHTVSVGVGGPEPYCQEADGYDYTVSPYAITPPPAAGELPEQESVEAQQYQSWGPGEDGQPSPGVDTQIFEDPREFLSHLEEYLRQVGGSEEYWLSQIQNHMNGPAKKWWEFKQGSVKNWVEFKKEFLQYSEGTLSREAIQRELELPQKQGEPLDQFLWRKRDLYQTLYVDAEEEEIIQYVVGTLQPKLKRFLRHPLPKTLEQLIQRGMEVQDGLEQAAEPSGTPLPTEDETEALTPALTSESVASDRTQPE
Described as above. The settings on record: remark: other sources report otherwise.

B1: EGFP-Arc (EGFP tag at the N-terminus), expressed in U2OS cells, Q9WV31 1-396 (natural protein)
chain: MELDHMTTGGLHAYPAPRGGPAAKPNVILQIGKCRAEMLEHVRRTHRHLLTEVSKQVERELKGLHRSVGKLENNLDGYVPTGDSQRWKKSIKACLCRCQETIANLERWVKREMHVWREVFYRLERWADRLESMGGKYPVGSEPARHTVSVGVGGPEPYCQEADGYDYTVSPYAITPPPAAGELPEQESVEAQQYQSWGPGEDGQPSPGVDTQIFEDPREFLSHLEEYLRQVGGSEEYWLSQIQNHMNGPAKKWWEFKQGSVKNWVEFKKEFLQYSEGTLSREAIQRELELPQKQGEPLDQFLWRKRDLYQTLYVDAEEEEIIQYVVGTLQPKLKRFLRHPLPKTLEQLIQRGMEVQDGLEQAAEPSGTPLPTEDETEALTPALTSESVASDRTQPE
Take B1: the stoichiometry N (Arc molecules per particle) in test [1] was 1 to 3.

B2: Arc-EGFP (EGFP tag at the C-terminus), expressed in U2OS cells, Q9WV31 1-396 (natural protein)
chain: MELDHMTTGGLHAYPAPRGGPAAKPNVILQIGKCRAEMLEHVRRTHRHLLTEVSKQVERELKGLHRSVGKLENNLDGYVPTGDSQRWKKSIKACLCRCQETIANLERWVKREMHVWREVFYRLERWADRLESMGGKYPVGSEPARHTVSVGVGGPEPYCQEADGYDYTVSPYAITPPPAAGELPEQESVEAQQYQSWGPGEDGQPSPGVDTQIFEDPREFLSHLEEYLRQVGGSEEYWLSQIQNHMNGPAKKWWEFKQGSVKNWVEFKKEFLQYSEGTLSREAIQRELELPQKQGEPLDQFLWRKRDLYQTLYVDAEEEEIIQYVVGTLQPKLKRFLRHPLPKTLEQLIQRGMEVQDGLEQAAEPSGTPLPTEDETEALTPALTSESVASDRTQPE
For B2, in test [2], the stoichiometry N (Arc molecules per particle) was 1 to 3.
